Here are results for two substances from paper PMC4415972.

In assay [1] the target is synaptic membrane proteins in SMPL Nanodiscs (immobilised on magnetic beads). As to the kind of experiment: ELISA; magnetic bead-based: SMPL Nanodiscs immobilised through the His tag of MSP on Dynabeads; PBS with 0.1% BSA and 25 mM imidazole; AβOs 1 h at 37°C; bound AβOs detected by NU2 antibody or through biotin (Vectastain) with colorimetric HRP substrate; nonspecific binding measured with excess ATA; Kd as Aβ monomer equivalent. A general note: An ELISA detects its analyte on a solid surface through an enzyme-linked reagent.

For assay [2], the target named is binding sites on cultured rat hippocampal neurons. Kind of assay: immunostaining of cells or tissue; cultured rat hippocampal neurons; biotinylated STI 30 min at 37°C, then 100 nM AβOs 30 min at 37°C; AβOs detected with NU2, STI with a streptavidin conjugate; in the PIPLC experiment 100 nM fluorescent AβOs were seen directly after 1 h of 0.2 units/mL PIPLC.

“biotin-labeled high MW AβOs (larger than 50 kDa) (from UniProt P05067 672-713; P05067 672-713) (peptide)”: the increase in assay response relative to unfractionated AβOs in assay [1] came to 80%. In turn, “biotinylated soybean trypsin inhibitor type II (from UniProt P01070 25-205) (natural protein)” yielded a percent reduction of AβO binding in assay [2] of 87%.
